Like-named read-outs stand apart in the source and are kept apart here.
What was measured:
Experiment in all cases: cell-based or functional assay
[1] = biological target: human IFNγ receptor on HEK-Blue IFN-γ cells (human)
human CD40 [2] = biological target: T1, human CD40 (human, UniProt P25942 21-277)
[3] = biological target: human IFNγ receptor on HEK-Blue IFN-γ cells (human); remark: listed apart in the source
[4] = biological target: human IFNγ receptor on HEK-Blue IFN-γ cells (human); remark: listed apart in the source
human CD40 [5] = biological target: T1, human CD40; remark: listed apart in the source

T1 sequence (P25942 21-277): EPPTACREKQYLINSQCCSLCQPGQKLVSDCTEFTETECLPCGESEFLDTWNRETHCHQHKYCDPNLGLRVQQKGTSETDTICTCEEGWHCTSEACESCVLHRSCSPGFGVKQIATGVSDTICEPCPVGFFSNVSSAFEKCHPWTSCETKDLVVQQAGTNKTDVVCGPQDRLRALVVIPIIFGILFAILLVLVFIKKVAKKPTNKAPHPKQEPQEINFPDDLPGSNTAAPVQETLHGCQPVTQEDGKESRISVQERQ

Binder	IFNγ EC50 (HEK-Blue IFNγ reporter cells) [1]	CD40 EC50 (HEK-Blue CD40L NFκB-SEAP reporter cells) (human CD40 [2])	IFNγ EC50 (HEK-Blue IFNγ reporter cells) [3]	IFNγ EC50 (HEK-Blue IFNγ reporter cells) [4]	CD40 EC50 (HEK-Blue CD40L NFκB-SEAP reporter cells) (human CD40 [5])
IFA125 (antibody, human IgG2, kappa) heavy: QVQLVESGGGVVQPGKSLRLSCAASGFTFSSNGIHWVRQAPGKGLEWVAVIWSDGSNKFYADSVKGRFTISRDNSKNTLYLQMNSLRAEDTAVYYCARASGSGSYYNFFDYWGQGTLVTVSSASTKGPSVFPLAPCSRSTSESTAALGCLVKDYFPEPVTVSWNSGALTSGVHTFPAVLQSSGLYSLSSVVTVPSSNFGTQTYTCNVDHKPSNTKVDKTVERKCCVECPPCPAPPVAGPSVFLFPPKPKDTLMISRTPEVTCVVVDVSHEDPEVQFNWYVDGVEVHNAKTKPREEQFNSTFRVVSVLTVVHQDWLNGKEYKCKVSNKGLPAPIEKTISKTKGQPREPQVYTLPPSREEMTKNQVSLTCLVKGFYPSDIAVEWESNGQPENNYKTTPPMLDSDGSFFLYSKLTVDKSRWQQGNVFSCSVMHEALHNHYTQKSLSLSPGGGGGSGGGGSGGGGSGGGGSQDPYVKEAENLKKYFNAGHSDVADNGTLFLGILKNWKEESDRKIMQSQIVSFYFKLFKNFKDDQSIQKSVETIKEDMNVKFFNSNKKKRDDFEKLTNYSVTDLNVQRKAIHELIQVMAELSPAAKTGKRKRSQMLFRGRRASQ light: not shown	0.142 ng/mL	8.8 ng/mL	–	–	–
IFA43 (antibody, human IgG2, kappa) heavy: not shown light: DIQMTQSPSSVSASVGDRVTITCRASQGIYSWLAWYQQKPGKAPNLLIYTASTLQSGVPSRFSGSGSGTDFTLTISSLQPEDFATYYCQQANIFPLTFGGGTKVEIKRTVAAPSVFIFPPSDEQLKSGTASVVCLLNNFYPREAKVQWKVDNALQSGNSQESVTEQDSKDSTYSLSSTLTLSKADYEKHKVYACEVTHQGLSSPVTKSFNRGEC	–	–	< 0.01 ng/mL	< 0.001 ng/mL	50.8 ng/mL
